One assay concerns the target T1, hNGΔ133-179Fc (human, UniProt Q13253 28-232).
T1 construct: not shown: peptide bridge to the Fc; Fc domain of human IgG1
T1 sequence: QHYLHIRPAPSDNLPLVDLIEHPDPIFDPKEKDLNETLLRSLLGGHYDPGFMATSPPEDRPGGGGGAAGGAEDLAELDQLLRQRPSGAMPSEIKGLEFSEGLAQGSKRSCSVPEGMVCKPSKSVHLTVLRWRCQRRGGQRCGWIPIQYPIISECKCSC
The assay is described as follows: binding to BMP4; assay not detailed.

The next assay addresses T2, Fc-tagged human noggin (human, UniProt Q13253 28-232).
T2 construct: Secreted protein; also called hNG-Fc; not shown: Fc domain of human IgG1 (BspEI-NotI human IgG1 fragment), hinge and Fc
T2 sequence: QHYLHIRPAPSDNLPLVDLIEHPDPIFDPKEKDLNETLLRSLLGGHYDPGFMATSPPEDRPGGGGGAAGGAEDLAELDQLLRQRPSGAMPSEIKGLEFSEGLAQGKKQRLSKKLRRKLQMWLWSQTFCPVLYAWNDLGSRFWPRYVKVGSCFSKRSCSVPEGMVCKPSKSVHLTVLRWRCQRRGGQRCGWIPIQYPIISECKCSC
Description: ELISA on plate-coated hBMP4. On the procedure:
Unbound hBMP4 was removed by washing four times with PBS, and the plates were blocked with 1% BSA in PBS. […] After a 1 hour incubation unbound anti-Fc●AP was removed by washing four times with TBS+0.1% Tween and then Alkaline Phosphatase substrate (para-nitrophenyl phosphate; Sigma) was added. Alkaline Phosphatase converts this substrate to a product whose production can be monitored by measuring Absorbance at 405 nm.
To determine if this hNG mutein was active, its ability to bind to hBMP4 was compared with that of hNG-Fc, which binds human Bone Morphogenetic Protein 4 (hBMP4) with affinity essentially identical to that of untagged hNG. An ELISA format assay where hBMP4 is captured on the surface of an ELISA plate was used to compare the two proteins.

B1: human Bone Morphogenetic Protein 4 (ligand, UniProt P12644 293-408, looked up)
chain: SPKHHSQRARKKNKNCRRHSLYVDFSDVGWNDWIVAPPGYQAFYCHGDCPFPLADHLNSTNHAIVQTLVNSVNSSIPKACCVPTELSAISMLYLDEYDKVVLKNYQEMVVEGCGCR
notes: also called hBMP4; BMP4
Take B1: the binding result in the assay with hNGΔ133-179Fc is reported as “no binding”; with Fc-tagged human noggin it was “binds”.
